# Assay results: patent US7105638B1
# Biological target: Example III polypeptide 2 (modified truncated TRP-LE - Asp-Leu hinge - Glu - salmon calcitonin Asp 15 analog) (salmon) (UniProt P01263)
substance,measurement,value
S. aureus V-8 protease (from UniProt P0C1U8) (enzyme),completeness of cleavage at the Glu residue amino terminal to calcitonin,> 95%
